We go through 19 molecules from US20180037651A1 (Janssen / Centocor, published 2018).

First the molecules themselves.
T1: cyno GPRC5D (cyno, UniProt Q9NZD1 1-343 (human entry))
T1 chain: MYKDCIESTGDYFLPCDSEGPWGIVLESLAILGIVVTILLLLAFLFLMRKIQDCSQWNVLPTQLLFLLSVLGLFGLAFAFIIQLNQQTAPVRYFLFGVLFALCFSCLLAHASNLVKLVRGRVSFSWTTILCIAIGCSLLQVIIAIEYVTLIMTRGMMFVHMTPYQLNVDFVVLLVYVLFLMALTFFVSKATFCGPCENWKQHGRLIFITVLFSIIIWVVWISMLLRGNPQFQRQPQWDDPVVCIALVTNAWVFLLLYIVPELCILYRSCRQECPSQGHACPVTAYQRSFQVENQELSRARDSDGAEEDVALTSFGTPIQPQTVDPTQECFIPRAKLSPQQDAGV

T2: murine GPRC5D (murine, UniProt Q9JIL6 1-344)
T2 construct: also called mouse GPRC5D
T2 sequence: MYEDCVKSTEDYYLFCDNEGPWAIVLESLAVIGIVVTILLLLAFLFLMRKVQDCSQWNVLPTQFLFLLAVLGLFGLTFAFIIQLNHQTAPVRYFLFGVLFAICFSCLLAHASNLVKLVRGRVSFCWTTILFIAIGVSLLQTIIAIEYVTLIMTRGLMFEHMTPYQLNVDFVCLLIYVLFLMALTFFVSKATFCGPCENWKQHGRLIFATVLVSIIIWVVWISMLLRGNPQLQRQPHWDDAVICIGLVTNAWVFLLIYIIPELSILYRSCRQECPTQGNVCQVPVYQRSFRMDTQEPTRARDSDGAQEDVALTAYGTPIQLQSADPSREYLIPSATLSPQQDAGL

B1: GCDB72 (bispecific antibody, IgG4, V domains shown)
VH 1: QVQLVQSGAEVKKPGASVKVSCKASGYSFTGYTMNWVRQAPGQGLEWMGLINPYNSDTNYAQKLQGRVTMTTDTSTSTAYMELRSLRSDDTAVYYCARVALRVALDYWGQGTLVTVSS
VL 1: DIQMTQSPSSLSASVGDRVTITCKASQNVATHVGWYQQKPGKAPKRLIYSASYRYSGVPSRFSGSGSGTEFTLTISNLQPEDFATYYCQQYNRYPYTFGQGTKLEIK
VH 2: EVQLVESGGGLVQPGGSLRLSCAASGFTFNTYAMNWVRQAPGKGLEWVARIRSKYNNYATYYAASVKGRFTISRDDSKNSLYLQMNSLKTEDTAVYYCARHGNFGNSYVSWFAYWGQGTLVTVSS
VL 2: QTVVTQEPSLTVSPGGTVTLTCRSSTGAVTTSNYANWVQQKPGQAPRGLIGGTNKRAPGTPARFSGSLLGGKAALTLSGVQPEDEAEYYCALWYSNLWVFGGGTKLTVL
notes: IgG4-PAA by Fab arm exchange; CD3 arm also F405L, R409K; also called GC5B596 x CD3B219
B2: GC5B590 (antibody, V domains shown)
VH: QVTLKESGPVLVKPTETLTLTCTVSGFSLTSYNVHWIRQPPGKALEWLAVIWAGGSTNYNSALKSRLTISKDTSKSQVVLTMTNMRAEDTATYYCARDGIRLRFAYWGQGTLVTVSS
VL: EIVMTQSPATLSVSPGERATLSCKASQNVATHVGWYQQKPGQAPRLLIYSASYRYSGIPARFSGSGSGTEFTLTISSLQSEDFAVYYCQQYNRYPYTFGQGTKLEIK
notes: GC5B540 PTM variant
B3: GC5B592 (antibody, V domains shown)
VH: B2 VH with K64M, G99A
VL: B2 VL
notes: GC5B540 PTM variant
B4: GC5B163 (antibody, V domains shown)
VH: EVQLVQSGAEVKKPGESLKISCKGSGYSFTSYWIGWVRQMPGKGLEWMGIIYPGDSDTRYSPSFQGQVTISADKSISTAYLQWSSLKASDTAMYYCARVYSFGGRHKALFDYWGQGTLVTVSS
VL: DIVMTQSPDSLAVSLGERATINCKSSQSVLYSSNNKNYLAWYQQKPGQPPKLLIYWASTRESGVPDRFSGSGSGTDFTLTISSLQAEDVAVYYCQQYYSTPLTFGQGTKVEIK
notes: GC5H36+PH9L2
B5: GC5B251 (antibody, IgG1, V domains shown)
VH: QVQLVQSGAEVKKPGSSVKVSCKASGGTFSSYGISWVRQAPGQGLEWMGGIIPIFGNINYAQKFQGRVTITADESTSTAYMELSSLRSEDTAVYYCARVSRRFKRFAYYFDYWGQGTLVTVSS
VL: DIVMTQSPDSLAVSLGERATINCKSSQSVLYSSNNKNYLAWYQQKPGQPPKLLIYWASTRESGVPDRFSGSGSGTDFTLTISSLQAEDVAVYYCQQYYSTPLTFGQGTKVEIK
notes: human IgG4PAA
B6: GC5B243 (antibody, IgG1, V domains shown)
VH: EVQLLESGGGLVQPGGSLRLSCAASGFTFSDYGMHWVRQAPGKGLEWVSAIKYSGGSTYYADSVKGRFTISRDNSKNTLYLQMNSLRAEDTAVYYCAKRAESGPGLDYWGQGTLVTVSS
VL: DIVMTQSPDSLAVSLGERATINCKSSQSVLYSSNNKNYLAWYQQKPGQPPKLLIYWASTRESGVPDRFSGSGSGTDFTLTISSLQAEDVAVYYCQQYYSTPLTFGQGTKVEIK
notes: human IgG4PAA
B7: GC5B252 (antibody, V domains shown)
VH: B5 VH
VL: EIVLTQSPATLSLSPGERATLSCRASQSVSSYLAWYQQKPGQAPRLLIYDASNRATGIPARFSGSGSGTDFTLTISSLEPEDFAVYYCQQRSNWPLTFGQGTKVEIK
notes: GC5H42+PH9L3
B8: GC5B164 (antibody, IgG1, V domains shown)
VH: B4 VH
VL: B7 VL
notes: GC5H36+PH9L3 (L6); human IgG4PAA
B9: GC5B332 (antibody, IgG1, V domains shown)
VH: EVQLVQSGAEVKKPGESLKISCKGSGYSFTSYWIGWVRQMPGKGLEWMGIIYPGDSDTRYSPSFQGQVTISADKSISTAYLQWSSLKASDTAMYYCARIGFYGRSFRIFDYWGQGTLVTVSS
VL: B7 VL
notes: GC5H35+PH9L3 (L6); human IgG4PAA
B10: GC5B320 (antibody, IgG1, V domains shown)
VH: not shown
VL: B7 VL
notes: GC5H58+PH9L3 (L6); human IgG4PAA
B11: GC5B505 (antibody, V domains shown)
VH: B4 VH with D55Y
VL: B7 VL
notes: GC5B164 PTM variant; also called GC5H244
B12: GC5B253 (antibody, V domains shown)
VH: B5 VH
VL: not shown
notes: GC5H42+PH9L4
B13: GC5B331 (antibody, V domains shown)
VH: B9 VH
VL: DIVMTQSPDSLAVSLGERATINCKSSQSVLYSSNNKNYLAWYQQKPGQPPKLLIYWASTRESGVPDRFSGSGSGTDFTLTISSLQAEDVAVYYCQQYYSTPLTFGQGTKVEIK
notes: GC5H35+PH9L2
B14: GC5B333 (printed with GC5H35) (antibody, V domains shown)
VH: B9 VH
VL: not shown
notes: GC5H35+PH9L4
B15: GC5B320 (printed with GC5H92) (antibody, V domains shown)
VH: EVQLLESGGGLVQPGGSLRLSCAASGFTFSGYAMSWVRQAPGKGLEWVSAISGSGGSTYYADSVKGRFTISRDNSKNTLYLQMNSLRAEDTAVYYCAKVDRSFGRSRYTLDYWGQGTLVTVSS
VL: B7 VL
B16: GC5B332 (printed with GC5H89) (antibody, V domains shown)
VH: B9 VH
VL: B7 VL
B17: GC5B80 (antibody, V domains shown)
VH: not shown
VL: B7 VL
notes: GC5H40+PH9L3
B18: GC5B284 (antibody, V domains shown)
VH: not shown
VL: B7 VL
notes: GC5H14+PH9L3
B19: GCDB35 (bispecific antibody, IgG4)
heavy 1: not shown
VL: B7 VL
heavy 2: EVQLVESGGGLVQPGGSLRLSCAASGFTFNTYAMNWVRQAPGKGLEWVARIRSKYNNYATYYAASVKGRFTISRDDSKNSLYLQMNSLKTEDTAVYYCARHGNFGNSYVSWFAYWGQGTLVTVSSASTKGPSVFPLAPCSRSTSESTAALGCLVKDYFPEPVTVSWNSGALTSGVHTFPAVLQSSGLYSLSSVVTVPSSSLGTKTYTCNVDHKPSNTKVDKRVESKYGPPCPPCPAPEAAGGPSVFLFPPKPKDTLMISRTPEVTCVVVDVSQEDPEVQFNWYVDGVEVHNAKTKPREEQFNSTYRVVSVLTVLHQDWLNGKEYKCKVSNKGLPSSIEKTISKAKGQPREPQVYTLPPSQEEMTKNQVSLTCLVKGFYPSDIAVEWESNGQPENNYKTTPPVLDSDGSFLLYSKLTVDKSRWQEGNVFSCSVMHEALHNHYTQKSLSLSLGK
light: QTVVTQEPSLTVSPGGTVTLTCRSSTGAVTTSNYANWVQQKPGQAPRGLIGGTNKRAPGTPARFSGSLLGGKAALTLSGVQPEDEAEYYCALWYSNLWVFGGGTKLTVLGQPKAAPSVTLFPPSSEELQANKATLVCLISDFYPGAVTVAWKADSSPVKAGVETTTPSKQSNNKYAASSYLSLTPEQWKSHRSYSCQVTHEGSTVEKTVAPTECS

Substitutions are numbered along the chain they refer to. In names and notes the source's numbering stands. Bounds are passed on as bounds.

The first assay concerns the target T1, cyno GPRC5D. Briefly: cell-based or functional assay.
Consider B1, for which the “T-cell redirection cytotoxicity EC50, cyno GPRC5D HEK cells” value was found to be 3.41 nM.

In the next assay the target is T3, human GPRC5D (human, UniProt Q9NZD1 1-345).
T3 construct: on transfected HEK293/RBL cells or endogenous on myeloma cells (H929, MM1R, OPM2, LP1, JIM3, patient plasma cells); also called G protein-coupled receptor class C group 5 member D; hGPRC5D
T3 sequence (Q9NZD1 whole entry): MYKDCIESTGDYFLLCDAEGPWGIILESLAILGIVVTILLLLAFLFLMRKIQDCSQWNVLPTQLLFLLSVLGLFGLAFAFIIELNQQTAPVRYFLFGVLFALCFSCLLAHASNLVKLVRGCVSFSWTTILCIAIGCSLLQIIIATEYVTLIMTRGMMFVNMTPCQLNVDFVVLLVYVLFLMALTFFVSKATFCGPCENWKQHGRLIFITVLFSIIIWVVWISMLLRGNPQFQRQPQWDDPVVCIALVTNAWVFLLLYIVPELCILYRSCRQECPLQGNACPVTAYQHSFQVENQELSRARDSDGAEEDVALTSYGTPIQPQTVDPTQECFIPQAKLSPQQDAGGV
In words: FACS, human GPRC5D cells. Background: Flow cytometry measures light scatter and fluorescence of single cells or particles in a stream.
B2: the binding result is on record as “binds”.
As to B3, the binding result was “binds”.

In a further assay the target is T3, human GPRC5D. In words: FACS, human GPRC5D HEK293F cells.
B4 returned an MFI of 840 MFI.
B5 displayed an MFI of 11400 MFI.
Still for that read-out and setting: the figure for B6 is 20500 MFI; for B7 it is 1500 MFI; for B8 it is 12700 MFI.
As to B9, the MFI came to 13300 MFI.
B10 registered an MFI of 22900 MFI.

For the next assay, the target named is T3, human GPRC5D. In words: FACS, human GPRC5D cells. This is another data set of the same source.
In the case of B11, the MFI was over 10000 mfi.

Another assay addresses T2, murine GPRC5D. Briefly: FACS, murine GPRC5D.
On to B1, for which the MFI is 481 MFI.

The next assay has as its target T1, cyno GPRC5D. Briefly: FACS, cyno GPRC5D cells, 1 ug/ml. The protocol: Whole cell phage panning was completed using the human GPRC5D cells as antigen, as described above. […] These mAbs were initially evaluated for binding to cyno GPRC5D using FACS. […] Briefly, FACS screening was performed by normalizing protein concentration to 1 ug/ml and 100 ul of protein was mixed with 200,000 cells per well. The mAb was allowed to incubate with cells for 1 hour at 4° C. The cells were then washed three times with PBS and 0.2% FBS. […] The cells and secondary antibody were incubated for 1 hour at 4° C. The cells were then washed three times with PBS and 0.2% FBS. The cells were washed again using PBS and 0.2% FBS and then analyzed on FACSarry.
On to B4, for which the MFI amounted to 22000 MFI.
On the same count and under the same terms, the figure for B5 is 213000 MFI; for B12 it is 574 MFI.
As to B6, the MFI was 117000 MFI.
Consider B13, for which the MFI is 552 MFI.
Consider B14, for which the MFI was found to be 1590 MFI.
The molecule B15 yielded an MFI of 297 MFI.
B7: the MFI was 63300 MFI.
B16: the MFI came out at 299 MFI.
In turn, B8 had an MFI of 122000 MFI.
B17: the MFI stood at 428 MFI.
As to B18, the MFI stood at 249 MFI.
Molecule B9 gave an MFI of 192000 MFI.
B10 returned an MFI of 49600 MFI.

The next assay addresses T1, cyno GPRC5D. Briefly: cell-based or functional assay. This is another data set of the same source.
In the case of B19, the “T cell mediated target cell killing, Cyno GPRC5D EC50” value was determined as 4.65 nM.

The target in a further assay is T1, cyno GPRC5D. In words: FACS, cyno GPRC5D HEK293F cells.
For B4, the MFI is 7600 MFI.
Still for that read-out and setting: the figure for B5 is 74500 MFI.
Turning to B6, the MFI stood at 67800 MFI.
On the same count and under the same terms, the figure for B7 is 22000 MFI; for B8 it is 78700 MFI.
In turn, B9 yielded an MFI of 107000 MFI.
The same measure, in the same setting: the figure for B10 is 63300 MFI.
